From patent US20230226135A9, “ACETYLCHOLINE MODULATION OF IMMUNE FUNCTION” (BCell Solutions, Inc., priority 2019, published 2023)

Experiment: Dosing formulation storage and stability
Format: physicochemical
Settings: 5 mg/mL DMSO stock
Procedure: Test Article Formulation Instructions & Calculations: Peptide dosing solution (0.2 mg/mL) was made fresh daily within 1 hour of use by diluting 0.09 mL of 5 mg/mL DMSO stock into 2.11 mL sterile saline. DMSO stock was kept at 4 C, then refrozen (to avoid repeated freeze-thaw cycles). Still, stock was relatively “solid” even at 4 C.
MLA antagonist dosing solution (0.6 mg/mL) was made on Day 2 by diluting the entire 5 mg in the sealed vial with 8.3 mL of sterile saline and aliquoting out ˜1.1 mL in each of seven 2 mL cryovials and freezing at −20 C. Four vials were used in the experiment, each thawed within 1 hour of use. Three vials remain frozen.
Dosing Formulations and Vehicle Storage & Stability: Saline vehicle is stable at 4 C for months. Peptide dosing solutions were made up and used fresh daily. […] MLA frozen “stock” solutions were stable for up to 1 month.

FRIMAVLAS [CAP, α7nAChR agonist]
stability of DMSO stock: stable for a few months
